According to patent US20250154235A1 (NEURIMMUNE, published 2025):
Ends that are not written are not given here.

How the values were obtained:
[1] = target: T1, bovine serum albumin (BSA) (bovine, UniProt P02769 25-607); assay: dot blot on nitrocellulose, NI-301.mur35G11 10 nM, anti-mouse IgG2a-HRP detection
T1 construct: Control antigen in the ELISA
Description: FIGS. 6A-6C: Absence of binding to human plasma TTR on dot blot. [0051] […] [0052] Samples 1-6:150 ng of 1) aggregated wt-TTR, 2) native wt-TTR, 3) BSA, 4) native V30M-TTR, 5) native L55P-TTR and 6) native Y78F-TTR. [0053] Samples 7-18:2 μl of plasma collected from 7-10) controls (n=4), 11-14) asymptomatic mutation carriers (n=4) and 15-18) FAP patients (n=4).

[2] = target: T2, misfolded-aggregated human wild-type TTR (human, UniProt P02766 21-147); assay: direct ELISA, misfolded-aggregated human wild-type TTR coated at 10 ug/ml
Description: (§1) The antibody capacity to bind TTR and/or misfolded, misassembled and/or aggregated forms of TTR was evaluated by means of direct ELISA assays at varying antibody concentrations. This allows to determinate for each antibody its half maximal effective concentration (EC50) in this assay, which is a commonly used proxy for the antibody binding affinity, see FIG. 2A-2C. […] Antibodies against TTR were diluted in PBS at 11 different concentrations ranging from 4 to 400 nM, and incubated in the ELISA plates overnight at 4° C. After 3 washes with PBS-T, ELISA plates were incubated with a HRP-coupled, human IgG-specific secondary antibody for 1 h at RT (1/4000 dilution). After 3 washes with PBS-T, the ELISA reactions were developed with TMB for exactly 10 min at RT and quantified by measuring the optical density at 450 nm (OD450 nm).
(§2) Subsequently, the antibody's EC50s were determined by fitting the data with a non-linear regression using the least square method in order to estimate the antibody binding affinity under these conditions.

[3] = target: mouse TTR protein contained in wild-type mouse liver extract (mouse, UniProt P07309 21-147); assay: western blot, wild-type mouse liver extract 10 ug total protein
Description: FIGS. 4A-4D: Specificity for aggregated TTR on western blot. [0047] […] To prevent dissociation of the high molecular weight aggregates, the aggregated TTR sample was crosslinked with glutaraldehyde (1%, 5 min) prior to loading on the gel.
The binding specificity and selectivity of anti-TTR antibodies was evaluated by means of western blot, see FIG. 4A-4D. In brief, human wild-type TTR protein (300 ng) in native or misfolded-aggregated conformations, and wild-type mouse liver extract (10 μg total protein) were loaded on a SDS-PAGE gel and transferred onto a nitrocellulose membrane using a semi-dry transfer system. […] After 4 washes with PBS-T for 5 min at RT, the membrane was incubated with the appropriate secondary antibody (HRP-coupled; 1/10000 dilution in blocking buffer) for 1 h at RT. After 3 washes with PBS-T and a final one in PBS, the membrane was developed with luminol and the signal intensity quantified by measuring luminescence. Shortly before use, the misfolded-aggregated TTR sample was submitted to crosslinking with glutaraldehyde (1%, 5 min, 37° C.) to prevent the dissociation of TTR aggregates during the preparation process for SDS-PAGE. In contrast, the native TTR sample was not crosslinked before use, such that the TTR homotetramer (which is the native TTR conformation under physiological conditions) almost entirely dissociated into monomers and dimers.

[4] = target: T3, TTR 15-mer peptide GLTTEEEFVEGIYKV (human, also: covalently bound to a membrane); assay: pepscan membrane of 15-mer TTR peptides (peptides 15 and 16)
T3 peptide: GLTTEEEFVEGIYKV
Description: (§3) Additional peptides including selected mutations were also plotted on the membrane. The membrane was blocked in Roti blocking buffer overnight at 4° C., incubated first with the anti-TTR antibody diluted in blocking buffer for 2 h at RT, then with an HRP-coupled anti human IgG antibody for 45 min at RT (dilution 1/20000 in TBS). The reaction was developed with luminol and imaged by luminescence.

[5] = target: T4, TTR 15-mer peptide EEEFVEGIYKVEIDT (human, also: covalently bound to a membrane); assay: as above
T4 peptide: EEEFVEGIYKVEIDT
Description: as §3

[6] = target: T2, misfolded-aggregated human wild-type TTR; assay: SPR (ProteOn XPR36), antibody captured by anti-human IgG-Fc, TTR in solution 3.2-316 nM, Langmuir 1:1 fit
Description: (§4) SPR analysis was performed on a BioRad ProteOn XPR36 fitted with a GLM sensor chip. An anti-human antibody directed against the Fc gamma domain was covalently coupled to the detection surface and saturated with the antibody under investigation. […] The antibody-antigen association was analyzed during 180 s and the dissociation during 600 s. A Langmuir binding model (simple 1:1 association) was used to fit the data and derive the association (ka) and dissociation (kd) constants, and the affinity (KD).
(§5) An anti-human IgG-Fcγ antibody was covalently coated on the detection surfaces, and used to capture the human TTR-specific antibodies.

native TTR-L55P = native TTR-L55P (human, UniProt P02766 21-147); assay: as above
Description: as §4, §5

native TTR-V30M = native TTR-V30M (human, UniProt P02766 21-147); assay: as above
Description: as §4, §5

[7] = target: misfolded-aggregated recombinant V30M-TTR (human, UniProt P02766 21-147); assay: direct ELISA, misfolded-aggregated recombinant V30M-TTR coated at 10 ug/ml
Description: as §1, §2

[8] = target: T1, bovine serum albumin (BSA); assay: direct ELISA, BSA coated at 10 ug/ml
Description: as §1, §2

[9] = target: T5, TTR 15-mer peptide TSESGELHGLTTEEE (human, also: covalently bound to a membrane); assay: pepscan membrane of 15-mer TTR peptides (peptides 13 and 14)
T5 peptide: TSESGELHGLTTEEE
Description: as §3

[10] = target: T6, TTR 15-mer peptide GELHGLTTEEEFVEG (human, also: covalently bound to a membrane); assay: as above
T6 peptide: GELHGLTTEEEFVEG
Description: as §3

[11] = target: T7, TTR 15-mer peptide ADDTWEPFASGKTSE (human, also: covalently bound to a membrane); assay: pepscan membrane of 15-mer TTR peptides (peptides 9, 10 and 11)
T7 peptide: ADDTWEPFASGKTSE
Description: as §3

[12] = target: T8, TTR 15-mer peptide WEPFASGKTSESGEL (human, also: covalently bound to a membrane); assay: as above
T8 peptide: WEPFASGKTSESGEL
Description: as §3

[13] = target: T9, TTR 15-mer peptide FRKAADDTWEPFASG (human, also: covalently bound to a membrane); assay: as above
T9 peptide: FRKAADDTWEPFASG
Description: as §3

[14] = target: T10, TTR-E42G peptide sequence WGPFA (41-45) (human); assay: pepscan membrane, mutant peptide
T10 construct: Present in a mutant 15-mer spot of the pepscan membrane
T10 peptide: WGPFA
Description: as §3

T1 sequence (P02769 25-607 limits assumed): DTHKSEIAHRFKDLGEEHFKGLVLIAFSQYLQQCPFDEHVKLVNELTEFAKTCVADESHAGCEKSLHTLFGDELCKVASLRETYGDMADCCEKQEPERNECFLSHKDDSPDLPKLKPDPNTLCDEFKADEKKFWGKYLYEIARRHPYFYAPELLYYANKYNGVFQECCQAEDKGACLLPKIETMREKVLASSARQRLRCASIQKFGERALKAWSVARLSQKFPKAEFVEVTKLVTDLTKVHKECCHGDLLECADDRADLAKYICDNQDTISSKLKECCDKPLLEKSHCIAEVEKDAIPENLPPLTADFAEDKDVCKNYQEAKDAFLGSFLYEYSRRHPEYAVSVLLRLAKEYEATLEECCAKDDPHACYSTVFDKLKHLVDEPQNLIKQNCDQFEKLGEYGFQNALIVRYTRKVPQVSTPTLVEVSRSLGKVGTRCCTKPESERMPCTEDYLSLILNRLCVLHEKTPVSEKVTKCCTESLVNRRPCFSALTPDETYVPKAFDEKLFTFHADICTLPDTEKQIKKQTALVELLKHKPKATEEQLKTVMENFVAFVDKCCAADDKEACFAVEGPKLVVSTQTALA

B1: mouse chimeric antibody NI-301.mur35G11 (antibody, V domains shown)
VH: EVQLVESGGGLVQPGGSLRLSCVASGFTFSSYAMSWVRQVPGKGLEWVSSISGSGDTTKYTDSVKGRFTISRDNSKNTVFLQMSSLRAEDTALYYCVKDGSGRIDPFALWGQGTMVTVSS
VL: EIVMTQSPLSLPVTLGQPASISCRSSRSLVYSDGNIYLNWFQQRPGQSPRRLIYKVSNRDSGVPDRFSGSGSDTDFTLRISRVEAEDVGVYYCMQGTHWPRTFGQGTKVEIK
notes: detected with anti-mouse IgG2a secondary antibody; also called murine chimeric anti-TTR antibody
B1: no binding (tested: 10 nM) [1].

B2: NI-301.59F1 (antibody, V domains shown)
VH: EVQLVESGGGLVQPGGSLRLSCVASGFTFSNYWMSWVRQAPGKGLEWVANINQDSEKYYVDSVKGRFAISRDNSKNSLYLQMNSLRVEDTGVYYCARDRYCSGGRCSRGNNWFDPWGQGTLVTVSS
VL: not shown
With B2 the EC50 [2] was 3 nM, the binding result [3] was “no binding (tested: 50 nM)” and the binding result [4] was “binds”. The binding result [5] was “binds”, the Kd [6] was 3.5 nM and the koff [6] was 0.00034 s⁻¹. It also gave a kon [6] of 97000 M⁻¹ s⁻¹, a Kd (native TTR-L55P) of 3.1 nM and a koff (native TTR-L55P) of 0.00015 s⁻¹. The kon (native TTR-L55P) was 51000 M⁻¹ s⁻¹, the Kd (native TTR-V30M) was 16 nM and the koff (native TTR-V30M) was 0.00022 s⁻¹. The kon (native TTR-V30M) was 13000 M⁻¹ s⁻¹, the EC50 [7] was 15.5 nM and the binding result [8] was “no binding (tested: up to 400 nM)”.

B3: NI-301.35G11 (antibody, V domains shown)
VH: EVQLVESGGGLVQPGGSLRLSCVASGFTFSSYAMSWVRQVPGKGLEWVSSISGSGDTTKYTDSVKGRFTISRDNSKNTVFLQMSSLRAEDTALYYCVKDGSGRIDPFALWGQGTMVTVSS
VL: EIVMTQSPLSLPVTLGQPASISCRSSRSLVYSDGNIYLNWFQQRPGQSPRRLIYKVSNRDSGVPDRFSGSGSDTDFTLRISRVEAEDVGVYYCMQGTHWPRTFGQGTKVEIK
notes: also called NI.35G11
B3: no binding (tested: 50 nM) [3]; binds [9]; binds [10]. B3: no binding (tested: up to 400 nM) [8].

B4: NI-301.37F1 (antibody, V domains shown)
VH: QVQLQESGPGLVKPSETLSLTCSVSGGSIISRSSYWGWIRQPPGKGLEWIGGIYHSGNTYDNPSLKSRLTMSVDTSKNQFSLNLRSVTAADTAVYYCARIVPGGDAFDIWGQGTMVTVSS
VL: DIQMTQSPSSLSASVGDRVTIACRASQSVGTYLNWYQQKRGKAPKLLIFAASSLQSGVPSRFSGSGSGTDFTLTISSLQPEDFATYYCQQSYSSPPTFGQGTKVEIK
B4: no binding (tested: 50 nM) [3]; binds [11]; binds [12]. B4: binds [13]; no binding (tested: up to 400 nM) [8]; no binding (tested: 50 nM) [14].
